The values that follow come from patent US6521814B1, “Use of ligands for treatment of diseases responsive to retinoids” (Institut National de la Santa et de la Recherche Medicale, priority 1997, dated 2003).

Settings in all cases: tags: ΔAB truncations, bacterially expressed, from H. Gronemeyer
Data set [1] has as its target T1, RARα(ΔAB)/RXRα(ΔAB) heterodimer (Mus musculus, UniProt P11416;P28700 P11416:88-462,P28700:140-467).
T1 sequence 1: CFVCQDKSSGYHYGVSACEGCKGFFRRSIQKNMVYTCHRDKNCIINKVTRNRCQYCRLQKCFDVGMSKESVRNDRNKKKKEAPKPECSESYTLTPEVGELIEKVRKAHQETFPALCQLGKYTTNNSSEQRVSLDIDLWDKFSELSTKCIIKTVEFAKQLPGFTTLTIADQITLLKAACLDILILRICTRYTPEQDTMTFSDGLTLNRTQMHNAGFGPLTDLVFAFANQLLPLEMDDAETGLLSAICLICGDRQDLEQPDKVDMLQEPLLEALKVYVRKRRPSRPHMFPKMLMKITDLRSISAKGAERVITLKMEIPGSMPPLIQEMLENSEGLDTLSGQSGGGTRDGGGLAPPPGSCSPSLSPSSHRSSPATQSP
T1 sequence 2: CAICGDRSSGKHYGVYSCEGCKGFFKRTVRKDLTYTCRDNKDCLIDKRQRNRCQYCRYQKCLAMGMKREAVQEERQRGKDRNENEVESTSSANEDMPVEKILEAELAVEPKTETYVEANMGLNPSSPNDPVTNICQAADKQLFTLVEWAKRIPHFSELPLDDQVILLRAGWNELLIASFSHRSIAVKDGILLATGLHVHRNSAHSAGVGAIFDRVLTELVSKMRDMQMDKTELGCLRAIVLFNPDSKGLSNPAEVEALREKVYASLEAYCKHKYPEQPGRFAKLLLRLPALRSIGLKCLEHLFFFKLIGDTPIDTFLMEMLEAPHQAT
Kind of data set: competition; no competition even at 100-fold excess. From the text:
(§1) DNA binding competition assays. Gel shift analysis using labeled RARE D2 (SEQ ID NO:2) and recombinant RARα and RXRα as indicated. As competitors, RARE D2 (SEQ ID NO:2), RAREβ2 (SEQ ID NO:5) and the mutant […] and […] cold oligonucleotides (SEQ ID NO:3) were used as indicated at 5, 50- and 100-fold molar excess. The black arrowhead indicates the shifted complex.
(§2) To further characterize the D2R RARE element and its binding affinity to retinoid receptors, mutations were introduced into this sequence generating D2 ml (SEQ ID NO:3) and D2 m2 (SEQ ID NO:4) (FIG. 7A). These mutated oligonucleotides were used for competition in gel-shift assays (FIG. 8).
(§3) DNA Binding Assays. A 29-bp synthetic oligonucleotide (SEQ ID NO:2) corresponding to the RARE region in the D2R promoter (SEQ ID NO:1) (from positions −76 to −49), in addition to two mutated oligonucleotides (SEQ ID NOs:3 and 4) (FIG. 7A) were used in gel retardation assays. A synthetic oligonucleotide corresponding to the RARE-β2 (SEQ ID NO:5) (Mader, S., et al., *J. Biol. Chem.* 268:591–600 (1993)) was used as positive control. Bacterially-expressed purified mouse RARα (ΔAB) and RXRα (ΔAB) proteins were kindly provided by H. Gronemeyer.

The target of data set [2] is T1, RARα(ΔAB)/RXRα(ΔAB) heterodimer. In words: competition; drastic decrease of labeled RARE D2 complex at 5-fold excess, complete at 50-fold; stronger than RARE D2.
From the text: as §1, §3

For data set [3] the target is unchanged. Kind of data set: competition; competes more efficiently than native RARE D2.
From the text: as §1, §2, §3

B1: D2m1 (dsDNA)
DNA 1: AGCTTCCTCGGTGCGAGGGGTACGCCGCG
DNA 2: CGCGGCGTACCCCTCGCACCGAGGAAGCT
Take B1: the binding result in data set [1] is reported as “no binding”.

B2: RAREβ2 (dsDNA)
DNA 1: GGGTAGGGTTCACCGAAAGTTCACTG
DNA 2: CAGTGAACTTTCGGTGAACCCTACCC
Consider B2, for which the binding result in data set [2] is on record as “binds”.

B3: D2m2 (dsDNA)
DNA 1: AGCTTCCTCGTGACCAGGGTGACCCCGCG
DNA 2: CGCGGGGTCACCCTGGTCACGAGGAAGCT
Turning to B3, in data set [3], the binding result is given as “binds”.
